# Values of other authors in patent publication US12440573B2, “Antibody-conjugates for targeting of tumours expressing PTK7” (Synaffix B.V., priority 2022, dated 2025).
# Key:
# [1] = system: locally advanced/metastatic, PTK7-positive NSCLC, TNBC, and platinum-resistant OvCa; conditions: previously treated patients, administered every 2 or 3 weeks
# [2] = system: patient-derived, tumor xenograft preclinical models
molecule,measurement,setting,value
"PF-06647020: prior-art ADC: humanized anti-PTK7 antibody with auristatin microtubule inhibitor payload (Aur0101) (conjugate, chains of the INN, looked up, Aur0101 auristatin payload) VH: QVQLVQSGPEVKKPGASVKVSCKASGYTFTDYAVHWVRQAPGKRLEWIGVISTYNDYTYNNQDFKGRVTMTRDTSASTAYMELSRLRSEDTAVYYCARGNSYFYALDYWGQGTSVTVSS VL: EIVLTQSPATLSLSPGERATLSCRASESVDSYGKSFMHWYQQKPGQAPRLLIYRASNLESGIPARFSGSGSGTDFTLTISSLEPEDFAVYYCQQSNEDPWTFGGGTKLEIK",clinical activity,[1],preliminary clinical activity
same,safety profile,[1],tolerable safety profile
same,tumor regression,[2],prolonged tumor regression
